Columns and labels:
[1] = target: human TNF alpha (Miltenyi, from yeast, Catalog no. 130-094) (human) (UniProt P01375); test: SPR, Biacore 8K
[2] = target: Llama Anti-human LC-kappa VHH Single Domain Antibody [Biotin] (CAT #: NABG-118); test: BLI, biotinylated VHH ligand on streptavidin biosensor
[3] = target: human TNF alpha (Miltenyi, from yeast, Catalog no. 130-094) (human) (UniProt P01375); test: SPR, Biacore 8K (column head prints nM; koff/kon gives this number in M)

Chain of UniProt P01375 (P01375 77-233 limits assumed): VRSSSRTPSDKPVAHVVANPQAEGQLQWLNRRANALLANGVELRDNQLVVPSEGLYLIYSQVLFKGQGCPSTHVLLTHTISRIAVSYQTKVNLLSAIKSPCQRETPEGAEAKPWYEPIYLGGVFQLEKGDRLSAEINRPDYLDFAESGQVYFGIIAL

% KD to wildtype [1] [%]	% koff to wildtype [1] [%]	% kon to wildtype [1] [%]	koff [1] [s⁻¹]	kon [1] [M⁻¹ s⁻¹]	% Response BLI of construct in comparison to wildtype (=% Binding to Kappa-ligand) [2] [%]	Kd [3] [nM]	Substance
99.4	96.1	96.1	0.000208	3.94e+06	1.66	0.0528	Adalimumab variant with Gln199Trp light chains (L234A/L235A Fc) (antibody)
104	92.7	92.7	0.00021	3.8e+06	7.87	0.0553	Adalimumab variant with His198Arg light chains (L234A/L235A Fc) (antibody)
–	–	–	–	–	100	0.0531	Adalimumab with WT light chain (no mutations) and L234A/L235A human IgG Fc variant (antibody)
110	90.5	90.5	0.000216	3.71e+06	12.5	0.0583	Adalimumab variant with Thr109Arg + Ser202Arg light chains (L234A/L235A Fc) (antibody)

From patent US20240018201A1
